From US20230052142A1 (NORDIC BIOSCIENCE A S, published 2023)

Target: T1, monoclonal antibody clone NBH134 #102-3GF
T1 construct: also called TUM antibody; HRP labeled monoclonal antibody
Test: TUM competitive ELISA: the standard peptide in solution competes with plate-bound …-K-Biotin for the HRP-labelled antibody
Experimental: Plates were washed five times in washing buffer (20 mM TRIS, 50 mM NaCl, pH 7.2). Subsequently, 20 μL of standard peptide or sample were added to appropriate wells, followed by 100 μL of 7 ng/mL horseradish peroxidase (HRP) labeled monoclonal antibody solution. The plates were incubated for 1 hour at 20° C. with shaking, and subsequently washed in washing buffer. Finally, 100 μL 3,3′,5,5-tetramethylbenzinidine (TMB) (Kem-En-Tec cat. 4380H) was added, and incubated for 15 min at 20° C. To stop the enzyme reaction of TMB, 100 μL of stopping solution (1% H₂SO₄) was added. The plate was analyzed by an ELISA reader at 450 nm with 650 nm as reference (Molecular Devices, VersaMax, CA, USA). A standard curve was performed by serial dilution of the standard peptide and plotted using a 4-parametric mathematical fit model. Standard concentrations were 0, 0.3125, 0.625, 1.25, 2.5, 5, 10, and 20 ng/mL. Each plate included five kit controls to monitor inter-assay variation. All samples were measured within the range of the assay, and all samples below lower limit of measurement range (LLMR) were reported as the value of LLMR.

IC50: 1.6 ng/mL
B1: standard peptide PGLKGKRGDS (peptide)
peptide: PGLKGKRGDS
notes: Synthetic peptide bought from Genscript; also called calibrator peptide; calibration peptide
